Laboratory results as given in US6933284.

Target: LDL receptor on normal human fibroblasts (human) (UniProt P01130)
Assay: competition with 125I-labeled human plasma LDL (2 µg/ml) for LDL receptors on normal human fibroblasts, 3 h at 4 °C

| ED50 [µg/mL] | Substance |
| --- | --- |
| 2.4 | K3363E LDL (recombinant LDL, human apo-B100 with glutamic acid for lysine at residue 3363), P04114 28-4563 |
| > 20 | R3500Q LDL (recombinant LDL, human apo-B100 with glutamine for arginine at residue 3500), P04114 28-4563 |
| > 20 | RK3359-3369SA LDL (recombinant LDL, human apo-B100 with the arginines of Site B changed to serines and the lysines to alanines), P04114 28-4563 |
| 2.3 | recombinant control LDL (human apo-B100 with leucine in place of glutamine at position 2153), P04114 28-4563 |
